Patent US20220098252, “INHIBITOR OF DUX4 AND USES THEREOF” (OSPEDALE SAN RAFFAELE S.R.L., published 2022)

Assays:
[1] = target: DUX4 DNA-binding domain (dbd) (Homo sapiens, UniProt Q6RFH8 SEQ:1-150); experiment: EMSA; binding inhibited by recombinant MATR3 1-287; settings: tags: 6xHis-GB1 (pET-GB1)
Protocol: (§1) Twenty femtomoles of probes were incubated with 15 pmol of in vitro purified 6xHis DUX4 dbd and/or GST-MATR3 1-287 proteins in the presence of 1 μg of poly(dI:dC) and 5 μg of salmon sperm DNA in a buffer containing 10 mM Tris, pH 7.5, 0.1 mM EDTA, 1 mM DTT, 100 mM KCl, 3 mM MgCl2, 12% glycerol.
(§2) After 2 h incubation at RT, DNA-protein complexes were separated by electrophoresis in 8% (w/v) acrylamide gels formed in 0.5×TBE (Sigma-Aldrich) and run in the same buffer at 5 mA at 4° C. Then, the gels were transferred on a Biodyne nylon membrane (Thermo Scientific) at 380 mA for 45 min at 4° C. The membrane was crosslinked at 120 mJ/cm2 with an UV-Stratalinker and the biotin-labelled DNA was detected by chemiluminescence using the LightShift Chemiluminescent EMSA Kit (Thermo Scientific) following the manufacturer's protocol.

MATR3 fragment 1-287 = target: T1, MATR3 fragment 1-287 (Homo sapiens, UniProt P43243 SEQ:1-287); experiment: EMSA; MATR3 1-287 alone unable to bind DNA; lacks nucleic acid binding domains; settings: tags: GST (pGEX2tk)
T1 sequence: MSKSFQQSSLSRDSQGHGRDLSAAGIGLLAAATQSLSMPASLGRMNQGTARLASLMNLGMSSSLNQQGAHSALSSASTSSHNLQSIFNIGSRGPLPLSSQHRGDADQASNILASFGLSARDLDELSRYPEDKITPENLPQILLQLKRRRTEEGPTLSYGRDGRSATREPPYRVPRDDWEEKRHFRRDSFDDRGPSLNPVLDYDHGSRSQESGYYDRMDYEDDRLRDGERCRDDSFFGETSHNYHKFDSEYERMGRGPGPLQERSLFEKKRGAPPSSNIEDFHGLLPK
Protocol: as §1, §2

DUX4 DNA-binding domain (dbd), sequence (Q6RFH8 1-150): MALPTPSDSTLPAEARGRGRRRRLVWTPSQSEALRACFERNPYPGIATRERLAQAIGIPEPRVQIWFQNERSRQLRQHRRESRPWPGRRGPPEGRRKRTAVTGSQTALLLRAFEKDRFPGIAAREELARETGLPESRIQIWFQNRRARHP

B1: FRG1 Peak 1 EMSA probe (dsDNA)
DNA 1: AATTGTAGCTATAATTCAATCATCTAAATTG
DNA 2: CAATTTAGATGATTGAATTATAGCTACAATT
binding result [1]: binds | binding result (MATR3 fragment 1-287): no binding
